Assay results published in publication doi:10.1101/2023.11.18.567679 (bioRxiv, 2023).

B1: Tse15 N-terminal clade domain (residue 1-334) (domain or fragment, UniProt A0A5K6CSR3 1-334, looked up)
chain: MAKENTQQKEIKRQPAVELAVFNLNSVTDVADLQMIASQVQLYLQVCGNTTLEQIKSKANITTVANIFALTGSVLDLMLYATDKKTGDAAVQRGALLAANLIGLFSEPNNEAHARMALRPMFGLMAECLYRENGKIKETDIKRLGLHLNAMIAGDLENFLKETQAKLSSLLISATTLGVTILQSMATPATGINAGITTAAGASAEKRDPKLKFTNWAVPLIDLLGKPSQANLTPKIQPNITSRLQQEATQAIAALSQTLQQQANAGQKYTLAWLLQETLKAIQALENKGNASVPINQTGEYERHTKGDTLEFVSLQADALNAPPCEGADSQSGK

Experiments:
[1] = target: T1, Tse15 central Rhs domain (residues 335-1395) (Acinetobacter baumannii (strain …, UniProt A0A5K6CSR3 335-1395)); assay: pull-down
T1 sequence (looked up): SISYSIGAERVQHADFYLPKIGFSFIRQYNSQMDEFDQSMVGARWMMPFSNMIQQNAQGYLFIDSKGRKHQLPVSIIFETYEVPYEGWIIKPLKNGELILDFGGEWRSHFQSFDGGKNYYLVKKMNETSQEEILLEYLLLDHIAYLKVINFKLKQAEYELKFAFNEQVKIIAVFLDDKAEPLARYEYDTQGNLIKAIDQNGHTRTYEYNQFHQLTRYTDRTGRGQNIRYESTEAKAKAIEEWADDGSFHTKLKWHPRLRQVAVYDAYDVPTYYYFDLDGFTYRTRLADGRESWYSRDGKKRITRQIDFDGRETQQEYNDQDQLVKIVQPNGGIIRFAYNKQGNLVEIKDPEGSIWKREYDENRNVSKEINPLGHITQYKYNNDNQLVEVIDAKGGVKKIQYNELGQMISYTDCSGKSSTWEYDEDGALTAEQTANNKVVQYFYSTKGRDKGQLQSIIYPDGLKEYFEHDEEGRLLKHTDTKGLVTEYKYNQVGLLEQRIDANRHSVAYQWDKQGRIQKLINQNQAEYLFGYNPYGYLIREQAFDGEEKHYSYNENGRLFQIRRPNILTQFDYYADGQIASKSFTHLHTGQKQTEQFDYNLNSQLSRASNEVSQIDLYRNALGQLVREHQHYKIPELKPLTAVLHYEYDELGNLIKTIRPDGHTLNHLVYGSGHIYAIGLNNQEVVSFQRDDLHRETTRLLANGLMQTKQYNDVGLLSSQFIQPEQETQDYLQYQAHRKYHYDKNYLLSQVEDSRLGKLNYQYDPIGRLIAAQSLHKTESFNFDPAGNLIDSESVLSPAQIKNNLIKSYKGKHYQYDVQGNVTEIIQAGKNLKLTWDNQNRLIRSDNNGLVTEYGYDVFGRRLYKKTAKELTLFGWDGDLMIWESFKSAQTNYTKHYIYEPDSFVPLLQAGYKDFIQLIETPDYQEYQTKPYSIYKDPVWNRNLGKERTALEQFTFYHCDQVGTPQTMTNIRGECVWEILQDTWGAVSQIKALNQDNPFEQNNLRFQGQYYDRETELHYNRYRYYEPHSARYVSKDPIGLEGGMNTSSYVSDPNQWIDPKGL

[2] = target: B1; assay: pull-down
[3] = target: T1, Tse15 central Rhs domain (residues …); assay: SEC

Row | Binder | binding result [1] | binding result [2] | binding result [3]
1 | Tse15 toxic C-terminal domain (residues 1396-1590) (domain or fragment, UniProt A0A5K6CSR3 1396-1590, looked up) NSFNYGEMFGIPASAQSGLAYQGQRNYECYAETGELCKIKVPPLFDYVACSGGGLGIGVGFVKNQWTGEYYISGSKDSLLIPVAKSVAQNKQFSAKDLAGASCVGGNIHNIPSYTKTTMTMGEITNEFVSGASVTVGGGAYGAVANVVVPLVSKSSPVKGTWASELGVGTPGFNVGVSGTVSVDTILDAVKPSKK | binds | binds | 
2 | B1 |  |  | binds
